# Molecular target: T1, 6xHis-TLX ligand-binding domain (UniProt Q9Y466 155-385)
# T1 construct: Construct limits, species and expression host should stand in the SI Appendix (methods); also called TLX LBD; NR2E1; source: purified
# Test: AlphaScreen or HTRF; ALPHA competition experiments in the presence of saturating 18:1ω9
# Settings: both partners purified
# T1 sequence (Q9Y466 155-385): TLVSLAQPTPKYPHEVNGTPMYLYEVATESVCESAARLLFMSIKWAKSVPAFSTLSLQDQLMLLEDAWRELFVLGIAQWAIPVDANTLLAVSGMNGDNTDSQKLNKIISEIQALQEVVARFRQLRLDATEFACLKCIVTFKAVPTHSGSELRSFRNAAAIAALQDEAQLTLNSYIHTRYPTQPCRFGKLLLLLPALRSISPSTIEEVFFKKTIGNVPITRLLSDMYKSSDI
binder,measurement,value
"receptor-interaction domain from NCOA3 (domain or fragment, UniProt Q9Y6Q9 621-821, looked up, The methods name an AlphaScreen GST Detection Kit, so a GST fusion may have been used somewhere; see SI Appendix; also called SRC3) LLQLLTCSSDDRGHSSLTNSPLDSSCKESSVSVTSPSGVSSSTSGGVSSTSNMHGSLLQEKHRILHKLLQNGNSPAEVAKITAEATGKDTSSITSCGDGNVVKQEQLSPKKKENNALLRYLLDRDDPSDALSKELQPQVEGVDNKMSQCTSSTIPSSSQEKDPKIKTETSEEGSGDLDNLDAILGDLTSSDFYNNSISSNG",EC50 with 18:1ω9,3.3 µM

# From PMC9060471, “Oleic acid is an endogenous ligand of TLX/NR2E1 that triggers hippocampal neurogenesis” (Proceedings of the National Academy of Sciences of the …, 2022)
